In patent publication US12226546 (University of California, dated 2025):

Columns and labels:
[1] = target: T1, poly(L-methionine sulfoxide-stat-L-alanine)155-block-poly(L-glutamate-Na)90, (M^OA)155E90 (not fully specified; L-methionine sulfoxide (M^O) residues in the statistical M^O/A segment (ca. 88 mol % M^O, 12 mol % Ala)); test: mixing of equal volumes of 5.0 wt % solutions in 1xPBS; polyion complex hydrogel formation
T1 chain: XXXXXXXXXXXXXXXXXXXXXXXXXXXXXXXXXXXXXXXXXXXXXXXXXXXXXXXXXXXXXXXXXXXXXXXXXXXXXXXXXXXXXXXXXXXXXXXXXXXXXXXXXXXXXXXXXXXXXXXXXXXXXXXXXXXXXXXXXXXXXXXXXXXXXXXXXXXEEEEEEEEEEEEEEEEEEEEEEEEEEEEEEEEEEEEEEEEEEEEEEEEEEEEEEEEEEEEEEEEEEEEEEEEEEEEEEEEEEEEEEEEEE

[2] = target: T2, poly(L-methionine sulfoxide-stat-L-alanine)155-block-poly(L-glutamate-Na)120, (M^OA)155E120 (not fully specified; L-methionine sulfoxide (M^O) residues in the statistical M^O/A segment (ca. 88 mol % M^O, 12 mol % Ala)); test: as above
T2 chain: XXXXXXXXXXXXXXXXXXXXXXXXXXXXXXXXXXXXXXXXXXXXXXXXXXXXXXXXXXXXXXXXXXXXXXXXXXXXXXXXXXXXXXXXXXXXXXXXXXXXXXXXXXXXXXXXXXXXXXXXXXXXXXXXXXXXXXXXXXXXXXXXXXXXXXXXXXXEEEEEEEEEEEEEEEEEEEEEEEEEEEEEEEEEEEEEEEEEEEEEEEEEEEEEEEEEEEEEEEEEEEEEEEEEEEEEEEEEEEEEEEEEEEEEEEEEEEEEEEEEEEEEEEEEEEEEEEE

[3] = target: T1, poly(L-methionine …); test: mixing of length-mismatched copolypeptides at E to K stoichiometry; hydrogel formation
[4] = target: T3, poly(L-methionine sulfoxide-stat-L-alanine)155-block-poly(L-glutamate-Na)30, (M^OA)155E30 (not fully specified; L-methionine sulfoxide (M^O) residues in the statistical M^O/A segment (ca. 88 mol % M^O, 12 mol % Ala)); test: mixing of equal volumes of 5.0 wt % solutions in 1xPBS; polyion complex hydrogel formation
T3 chain: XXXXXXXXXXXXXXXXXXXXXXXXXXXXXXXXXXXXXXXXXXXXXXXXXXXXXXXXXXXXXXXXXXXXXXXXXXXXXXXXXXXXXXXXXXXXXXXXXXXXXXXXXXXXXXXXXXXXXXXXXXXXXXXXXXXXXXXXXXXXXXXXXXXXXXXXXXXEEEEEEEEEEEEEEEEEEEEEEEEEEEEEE

[5] = target: T4, FITC labeled (M^OA)155E60 (not fully specified; L-methionine sulfoxide (M^O) residues in the statistical M^O/A segment; fluorescein isothiocyanate (FITC) conjugated onto the N-terminal amine); test: laser scanning confocal microscopy of fluorescently labeled hydrogel, 3.0 wt % in PBS
T4 construct: Fluorescently labeled form of (M^OA)155E60 used for confocal microscopy; also called E labeled (FITC)
T4 chain: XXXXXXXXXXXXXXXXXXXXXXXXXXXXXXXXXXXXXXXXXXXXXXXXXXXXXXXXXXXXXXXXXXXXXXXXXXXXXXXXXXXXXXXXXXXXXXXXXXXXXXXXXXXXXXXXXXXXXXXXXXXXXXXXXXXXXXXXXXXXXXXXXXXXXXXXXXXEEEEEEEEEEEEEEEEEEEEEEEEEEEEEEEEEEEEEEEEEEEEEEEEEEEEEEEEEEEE
Text: Laser scanning confocal microscopy (LSCM) was then used to visualize the labeled chains and the hydrogel network (FIG. 3A-3B).
Example 8—Laser Scanning Confocal Microscopy (LSCM) of Fluorescently Labeled Hydrogels LSCM images of hydrogels (3.0 wt % in PBS) were taken on a Leica TCS-SP1 MP-Inverted Confocal and Multiphoton Microscope equipped with an argon laser (476 and 488 nm blue lines), a diode (DPSS) laser (561 nm yellow-green line), and a helium-neon laser (633 nm far red line). Fluorescently labeled hydrogel samples were visualized on glass slides with a spacer between the slide and the cover slip (double-sided tape) allowing the self-assembled structures to be minimally disturbed during focusing. A Z-slice thickness of 0.78 µm was used. Sample imaging was performed at the Advanced Light Microscopy/Spectroscopy Center (ALMS) at the UCLA California NanoSystems Institute (CNSI).

[6] = target: T5, poly(L-methionine sulfoxide0.88-stat-L-alanine0.12)155-block-poly(L-glutamate)60, (M^OA)155E60 (not fully specified; L-methionine sulfoxide (M^O) residues in the statistical M^O/A segment (ca. 88 mol % M^O, 12 mol % Ala)); test: mixing of equal volumes of 5.0 wt % solutions in 1xPBS; polyion complex hydrogel formation
T5 chain: T4 chain

B1: poly(L-methionine sulfoxide-stat-L-alanine)155-block-poly(L-lysine-HCl)90, (M^OA)155K90 (other)
chain: XXXXXXXXXXXXXXXXXXXXXXXXXXXXXXXXXXXXXXXXXXXXXXXXXXXXXXXXXXXXXXXXXXXXXXXXXXXXXXXXXXXXXXXXXXXXXXXXXXXXXXXXXXXXXXXXXXXXXXXXXXXXXXXXXXXXXXXXXXXXXXXXXXXXXXXXXXXKKKKKKKKKKKKKKKKKKKKKKKKKKKKKKKKKKKKKKKKKKKKKKKKKKKKKKKKKKKKKKKKKKKKKKKKKKKKKKKKKKKKKKKKKK
modifications: not fully specified; X: randomised place (mixture); also: X1-155: Met(O) or Ala, statistical (ca. 88 mol % Met(O)), HCl salt
B1: binds [1].

B2: poly(L-methionine sulfoxide-stat-L-alanine)155-block-poly(L-lysine-HCl)120, (M^OA)155K120 (other)
chain: XXXXXXXXXXXXXXXXXXXXXXXXXXXXXXXXXXXXXXXXXXXXXXXXXXXXXXXXXXXXXXXXXXXXXXXXXXXXXXXXXXXXXXXXXXXXXXXXXXXXXXXXXXXXXXXXXXXXXXXXXXXXXXXXXXXXXXXXXXXXXXXXXXXXXXXXXXXKKKKKKKKKKKKKKKKKKKKKKKKKKKKKKKKKKKKKKKKKKKKKKKKKKKKKKKKKKKKKKKKKKKKKKKKKKKKKKKKKKKKKKKKKKKKKKKKKKKKKKKKKKKKKKKKKKKKKKKK
modifications: X: randomised place (mixture); also: X1-155: Met(O) or Ala, statistical (ca. 88 mol % Met(O)), polydisperse, lengths nominal, HCl salt
B2: binds [2].

B3: poly(L-methionine sulfoxide-stat-L-alanine)155-block-poly(L-lysine-HCl)30, (M^OA)155K30 (other)
chain: XXXXXXXXXXXXXXXXXXXXXXXXXXXXXXXXXXXXXXXXXXXXXXXXXXXXXXXXXXXXXXXXXXXXXXXXXXXXXXXXXXXXXXXXXXXXXXXXXXXXXXXXXXXXXXXXXXXXXXXXXXXXXXXXXXXXXXXXXXXXXXXXXXXXXXXXXXXKKKKKKKKKKKKKKKKKKKKKKKKKKKKKK
modifications: not fully specified; L-methionine sulfoxide (M^O) residues in the statistical M^O/A segment (ca. 88 mol % M^O, 12 mol % Ala)
B3: binds [3]; binds [4].

B4: TRITC labeled (M^OA)155K60 (other)
chain: XXXXXXXXXXXXXXXXXXXXXXXXXXXXXXXXXXXXXXXXXXXXXXXXXXXXXXXXXXXXXXXXXXXXXXXXXXXXXXXXXXXXXXXXXXXXXXXXXXXXXXXXXXXXXXXXXXXXXXXXXXXXXXXXXXXXXXXXXXXXXXXXXXXXXXXXXXXKKKKKKKKKKKKKKKKKKKKKKKKKKKKKKKKKKKKKKKKKKKKKKKKKKKKKKKKKKKK
modifications: X: randomised place (mixture); also: positions 1-155 statistical Met(O)/Ala copolymer, polydisperse, nominal block lengths, TRITC on an unspecified Lys side chain, about 1 probe per 5 chains, Lys as HCl salt
notes: Fluorescently labeled form of (M^OA)155K60 used for confocal microscopy; also called K labeled (TRITC)
B4: binds [5].

B5: poly(L-methionine sulfoxide0.88-stat-L-alanine0.12)155-block-poly(L-lysine)60, (M^OA)155K60 (other)
chain: B4 chain
modifications: not fully specified; X: randomised place (mixture); also: X1-155: Met(O) or Ala, statistical (ca. 88 mol % Met(O), 12 mol % Ala), HCl salt
B5: binds [6].
